In patent US20230340090A1 (published 2023):

T1: TDP-215 peptide GDVMDVFI (human)
T1 construct: same ELISA method as for the biotinylated 15-mers
T1 peptide: GDVMDVFI


Biological target: T1, TDP-215 peptide GDVMDVFI
Test: indirect ELISA on 8-mer peptide library
Procedure: Serum-free supernatants were harvested from stable hybridomas. The supernatants containing antibodies of interest were then screened by an indirect ELISA assay to determine epitopes. Epitopes were mapped using a library of TDP-43 15-mer peptides. Briefly, 96-well streptavidin-coated 96-well ELISA plates were incubated with 5 μg/mL of biotinylated 15-mer peptides spanning the amino acids (aa) 199-285 of human TDP-43 with 9 as offset and 6 as overlap. Plates were washed thoroughly with 0.05% Tween-20/PBS and then blocked with 1% bovine serum albumin (BSA) in 0.05% Tween-20/PBS for 1 hour at 37° C. The antibody contained in the hybridoma supernatant was then added at the indicated dilutions, and incubated for 2 hours at 37° C. after which the plates were washed as described previously. An AP-conjugated anti-mouse IgG secondary antibody (Jackson ImmunoResearch Laboratories, United Kingdom) was added at 1/1000 dilution in 0.05% Tween-20/PBS for 1 hour at 37° C. After the final wash, plates were incubated with pNPP (Sigma-Aldrich, Switzerland) an AP substrate solution, and read at 405 nm using an ELISA plate reader (Tecan).
Furthermore, antibodies were tested using an indirect ELISA on a peptide library of 8-mer peptides with 7 an overlap covering the sequence of human TDP-43 from aa 210 to aa 231, using the same ELISA method as describe previously in this section.

binding result	Binder
binds	ACI-7062-415H10-Ab2 (antibody, IgG3, V domains shown, Mouse hybridoma antibody, IgG3, kappa; also called 415H10B7; clone 17) VH: DVQLVESGGGLVQPGGSRKLSCAASGFTFSSFGMHWVRQAPEKGLEWVAYISSGSSNIYYTDTVKGRFTISRDNPKNTLFLQMTSLRSEDTAIYYCARSGTTVPFDYWGQGTTLTVSS VL: not shown
binds	ACI-7062-404D6-Ab2 (antibody, IgG3, V domains shown, Mouse hybridoma antibody, IgG3, kappa; also called 404D6E11; clone 4) VH: QVTLKESGPGILQPSQTLSLTCSFSGFSLSTYGIGVGWIRQPSGKGLEWLAHIWWNDYKYYNTALKSRLTISKDTSNNRVFLKIASVDTADTATYYCARVYGNLYYFDYWGQGTTLTVSS VL: DVLMTQTPLSLPVSLGDQASISCRSSQSIVHGSGNTYLEWYLQKPGQSPKLLIYKVSNRFSGVPDRFSGSGSGTDFTLRISRVEAEDLGVYYCFQGSHVPTFGAGTKLELKR
